# Results published in the supplement of paper PMC10567573.
# B1: CPOX (parent)
# chain: HAPTIHFNYRYFEVEEADGNKQWW
# Variants of: B1
# Assay: protein stability index of a GFP-peptide fusion (GPS, HEK-293T) (PSI 1-6); higher = more stable
# Conditions: c terminus: a fixed tail appended
# 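Also: lentivirally expressed fusions sorted by FACS into six bins by GFP to DsRed ratio, PSI derived from sequencing read proportions per bin multiplied by bin number.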
row,Variant,protein stability index
1,HAPTIHFNYRYFEVEEAQGNKQWW,3.07
2,HAPTIHFNYRYFEVEEAAGNKQWW,2.6
3,HAPTIHFNYRYFEVEEACGNKQWW,1.61
4,HAPTIHFNYRYFEVEEAPGNKQWW,1.71
5,HAPTIHFNYRYFEVEEAMGNKQWW,1.7
6,HAPTIHFNYRYFEVEEAKGNKQWW,2.16
7,HAPTIHFNYRYFEVEEAVGNKQWW,1.68
8,HAPTIHFNYRYFEVEEATGNKQWW,1.89
9,HAPTIHFNYRYFEVEEANGNKQWW,2.32
10,HAPTIHFNYRYFEVEEAYGNKQWW,1.07
11,HAPTIHFNYRYFEVEEADMNKQWW,2.06
12,HAPTIHFNYRYFEVEEADFNKQWW,2.46
13,HAPTIHFNYRYFEVEEADSNKQWW,2.19
14,HAPTIHFNYRYFEVEEADNNKQWW,2.22
15,HAPTIHFNYRYFEVEEADENKQWW,2.48
16,HAPTIHFNYRYFEVEEADKNKQWW,2.17
17,HAPTIHFNYRYFEVEEADANKQWW,2.33
18,HAPTIHFNYRYFEVEEADRNKQWW,2.25
19,HAPTIHFNYRYFEVEEADHNKQWW,1.8
20,HAPTIHFNYRYFEVEEADDNKQWW,3.04
21,HAPTIHFNYRYFEVEEADQNKQWW,2.11
22,HAPTIHFNYRYFEVEEADWNKQWW,1.79
23,HAPTIHFNYRYFEVEEADINKQWW,2.07
24,HAPTIHFNYRYFEVEEADCNKQWW,1.97

row,Variant,protein stability index
1,HAPTIHFNYRYFEVEEADPNKQWW,2.04
2,HAPTIHFNYRYFEVEEADTNKQWW,2.26
3,HAPTIHFNYRYFEVEEADYNKQWW,3.23
4,HAPTIHFNYRYFEVEEADVNKQWW,2.11
5,HAPTIHFNYRYFEVEEADLNKQWW,1.87
6,HAPTIHFNYRYFEVEEADGNKQHW,3.06
7,HAPTIHFNYRYFEVEEADGNKQAW,3.94
8,HAPTIHFNYRYFEVEEADGNKQEW,4.22
9,HAPTIHFNYRYFEVEEADGNKQDW,4.27
10,HAPTIHFNYRYFEVEEADGNKQFW,2.04
11,HAPTIHFNYRYFEVEEADGNKQLW,2.73
12,HAPTIHFNYRYFEVEEADGNKQGW,2.8
13,HAPTIHFNYRYFEVEEADGNKQCW,2.07
14,HAPTIHFNYRYFEVEEADGNKQIW,2.58
15,HAPTIHFNYRYFEVEEADGNKQKW,3.35
16,HAPTIHFNYRYFEVEEADGNEQWW,2.53
17,HAPTIHFNYRYFEVEEADGNYQWW,1.95
18,HAPTIHFNYRYFEVEEADGNLQWW,1.74
19,HAPTIHFNYRYFEVEEADGNIQWW,2.25
20,HAPTIHFNYRYFEVEEADGNTQWW,1.53
21,HAPTIHFNYRYFEVEEADGNPQWW,2.25
22,HAPTIHFNYRYFEVEEADGNFQWW,1.6
23,HAPTIHFNYRYFEVEEADGNSQWW,1.99
24,HAPTIHFNYRYFEVEEADGNMQWW,1.54

row,Variant,protein stability index
1,HAPTIHFNYRYFEVEEADGNCQWW,2.45
2,HAPTIHFNYRYFEVEEADGNWQWW,1.89
3,HAPTIHFNYRYFEVEEADGNDQWW,2.52
4,HAPTIHFNYRYFEVEEADGNQQWW,2.67
5,HAPTIHFNYRYFEVEEADGNVQWW,2.1
6,HAPTIHFNYRYFEVEEADGNRQWW,2.43
7,HAPTIHFNYRYFEVEEADGNHQWW,2.6
8,HAPTIHFNYRYFEVEEADGNGQWW,2.44
9,HAPTIHFNYRYFEVEEADGNAQWW,2.44
10,HAPTIHFNYRYFEVEEADGNNQWW,2.22
11,HAPTIHFNYRYFEREEADGNKQWW,2.29
12,HAPTIHFNYRYFEFEEADGNKQWW,2.11
13,HAPTIHFNYRYFESEEADGNKQWW,2.44
14,HAPTIHFNYRYFEGEEADGNKQWW,3.15
15,HAPTIHFNYRYFETEEADGNKQWW,2.43
16,HAPTIHFNYRYFEAEEADGNKQWW,2.52
17,HAPTIHFNYRYFELEEADGNKQWW,2.37
18,HAPTIHFNYRYFEMEEADGNKQWW,2.06
19,HAPTIHFNYRYFEKEEADGNKQWW,2.85
20,HAPTIHFNYRYFEPEEADGNKQWW,2.29
21,HAPTIHFNYRYFEIEEADGNKQWW,2.44
22,HAPTIHFNYRYFEYEEADGNKQWW,2.23
23,HAPTIHFNYRYFEEEEADGNKQWW,3.62
24,HAPTIHFNYRYFECEEADGNKQWW,1.82

row,Variant,protein stability index
1,HAPTIHFNYRYFENEEADGNKQWW,2.42
2,HAPTIHFNYRYFEHEEADGNKQWW,2.4
3,HAPTIHFNYRYFEQEEADGNKQWW,2.85
4,HAPTIHFNYRYFEWEEADGNKQWW,2.35
5,HAPTIHFNYRYFEDEEADGNKQWW,3.06
6,HAPTIHFNYRYFEVEFADGNKQWW,1.44
7,HAPTIHFNYRYFEVESADGNKQWW,2.24
8,HAPTIHFNYRYFEVEPADGNKQWW,1.83
9,HAPTIHFNYRYFEVEQADGNKQWW,2.39
10,HAPTIHFNYRYFEVEMADGNKQWW,2.81
11,HAPTIHFNYRYFEVEHADGNKQWW,1.82
12,HAPTIHFNYRYFEVEGADGNKQWW,2.21
13,HAPTIHFNYRYFEVEKADGNKQWW,2.18
14,HAPTIHFNYRYFEVETADGNKQWW,2.53
15,HAPTIHFNYRYFEVERADGNKQWW,1.91
16,HAPTIHFNYRYFEVELADGNKQWW,1.44
17,HAPTIHFNYRYFEVENADGNKQWW,1.83
18,HAPTIHFNYRYFEVEIADGNKQWW,2.29
19,HAPTIHFNYRYFEVECADGNKQWW,1.67
20,HAPTIHFNYRYFEVEYADGNKQWW,1.37
21,HAPTIHFNYRYFEVEAADGNKQWW,1.67
22,HAPTIHFNYRYFEVEDADGNKQWW,2.13
